B1: ABL-CD3-14 (antibody, V domains shown)
VH: EVQLVESGGGLVKPGGSLRLSCAASGFTCSSYSMTWVRQAPGKGLEWVSSISRRSSYIYYADSVKGRFTISRDNAKNSLYLQLNSLRAEDTAVYYCARERWELLYFDYWGQGTLVTVSS
VL: NFMLTQPHSVSESPGKTVTISCTRSSGSIASNYVQWYQQRPGSSPTTVIYEDNQRPSGVPDRFSGSIDSSSNSASLTISGLKTEDEADYYCQSYDSSNRVFGGGTKLTVL
notes: Chimeric hybridoma mAb: human V, CH1, upper hinge; mouse middle hinge, CH2, CH3
B2: CD3 × CD33-BspAb36 (bispecific antibody)
scFv-Fc: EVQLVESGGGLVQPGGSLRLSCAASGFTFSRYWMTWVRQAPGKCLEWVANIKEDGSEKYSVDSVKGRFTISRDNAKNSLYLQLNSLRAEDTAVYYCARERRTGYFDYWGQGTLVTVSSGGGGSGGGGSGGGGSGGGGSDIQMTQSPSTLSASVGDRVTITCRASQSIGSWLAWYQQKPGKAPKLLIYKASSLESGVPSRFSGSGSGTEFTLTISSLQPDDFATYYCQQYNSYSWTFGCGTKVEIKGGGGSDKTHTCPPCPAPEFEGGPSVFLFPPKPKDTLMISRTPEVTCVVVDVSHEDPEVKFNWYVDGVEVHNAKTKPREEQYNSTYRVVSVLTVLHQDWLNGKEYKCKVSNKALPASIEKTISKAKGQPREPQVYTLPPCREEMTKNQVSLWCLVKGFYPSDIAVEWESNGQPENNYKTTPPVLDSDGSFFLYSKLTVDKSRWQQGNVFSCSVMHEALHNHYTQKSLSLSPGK
heavy: EVQLVQSGAEVKKPGSSVKVSCKASGYTITDSNIHWVRQAPGQSLEWIGYIYPYNGGTDYNQKFKNRATLTVDNPTNTAYMELSSLRSEDTAFYYCVNGNPWLAYWGQGTLVTVSSASTKGPSVFPLAPSSKSTSGGTAALGCLVKDYFPEPVTVSWNSGALTSGVHTFPAVLQSSGLYSLSSVVTVPSSSLGTQTYICNVNHKPSNTKVDKRVEPKSCDKTHTCPPCPAPEFEGGPSVFLFPPKPKDTLMISRTPEVTCVVVDVSHEDPEVKFNWYVDGVEVHNAKTKPREEQYNSTYRVVSVLTVLHQDWLNGKEYKCKVSNKALPASIEKTISKAKGQPREPQVCTLPPSREEMTKNQVSLSCAVKGFYPSDIAVEWESNGQPENNYKTTPPVLDSDGSFFLVSKLTVDKSRWQQGNVFSCSVMHEALHNRFTQKSLSLSPGK
light: DIQLTQSPSTLSASVGDRVTITCRASESLDNYGIRFLTWFQQKPGKAPKLLMYAASNQGSGVPSRFSGSGSGTEFTLTISSLQPDDFATYYCQQTKEVPWSFGQGTKVEVKRTVAAPSVFIFPPSDEQLKSGTASVVCLLNNFYPREAKVQWKVDNALQSGNSQESVTEQDSKDSTYSLSSTLTLSKADYEKHKVYACEVTHQGLSSPVTKSFNRGEC
B3: CD3 × CD33-BspAb42 (bispecific antibody)
chain 1: EVQLVESGGGLVKPGGSLRLSCAASGFTLSSYSMNWVRQAPGKCLEWVSSISRSGSYIYYADSVKGRFTISRDNAKNSLYLQMNSLRAEDTAVYYCAREKWELLYFDYWGQGTLVTVSSGGGGSGGGGSGGGGSGGGGSNFMLTQPHSVSESPGKTVTISCTRSSGSIASNYVQWYQQRPGSSPTTVIYEDNQRPSGVPDRFSGSIDSSSNSASLTISGLKTEDEADYYCQSYDSSNRVFGCGTKLTVLDKTHTCPPCPAPEFEGGPSVFLFPPKPKDTLMISRTPEVTCVVVDVSHEDPEVKFNWYVDGVEVHNAKTKPREEQYNSTYRVVSVLTVLHQDWLNGKEYKCKVSNKALPASIEKTISKAKGQPREPQVYTLPPCREEMTKNQVSLWCLVKGFYPSDIAVEWESNGQPENNYKTTPPVLDSDGSFFLYSKLTVDKSRWQQGNVFSCSVMHEALHNHYTQKSLSLSPGK
chain 2: B2 heavy
chain 3: B2 light
B4: CD3 × CD33-BspAb45 (bispecific antibody)
chain 1: EVQLVESGGGLVQPGGSLRLSCAASGFTFSRYSMNWVRQAPGKCLEWVSYISSSSSSIYYADSVKGRFTISRDNAKNSLYLQMNSLRDEDTAVYYCARDRRATLDYWGQGTLVTVSSGGGGSGGGGSGGGGSGGGGSNFMLTQPHSVSESPGKTVTISCTRSSGSIASNYVQWYQQRPGSSPTTVIYEDNQRPSGVPDRFSGSIDSSSNSASLTISGLKTEDEADYYCQSYDSSNHVFGCGTKLTVLDKTHTCPPCPAPEFEGGPSVFLFPPKPKDTLMISRTPEVTCVVVDVSHEDPEVKFNWYVDGVEVHNAKTKPREEQYNSTYRVVSVLTVLHQDWLNGKEYKCKVSNKALPASIEKTISKAKGQPREPQVYTLPPCREEMTKNQVSLWCLVKGFYPSDIAVEWESNGQPENNYKTTPPVLDSDGSFFLYSKLTVDKSRWQQGNVFSCSVMHEALHNHYTQKSLSLSPGK
chain 2: B2 heavy
chain 3: B2 light
B5: CD3 × CD33-BspAb50 (bispecific antibody)
scFv-Fc: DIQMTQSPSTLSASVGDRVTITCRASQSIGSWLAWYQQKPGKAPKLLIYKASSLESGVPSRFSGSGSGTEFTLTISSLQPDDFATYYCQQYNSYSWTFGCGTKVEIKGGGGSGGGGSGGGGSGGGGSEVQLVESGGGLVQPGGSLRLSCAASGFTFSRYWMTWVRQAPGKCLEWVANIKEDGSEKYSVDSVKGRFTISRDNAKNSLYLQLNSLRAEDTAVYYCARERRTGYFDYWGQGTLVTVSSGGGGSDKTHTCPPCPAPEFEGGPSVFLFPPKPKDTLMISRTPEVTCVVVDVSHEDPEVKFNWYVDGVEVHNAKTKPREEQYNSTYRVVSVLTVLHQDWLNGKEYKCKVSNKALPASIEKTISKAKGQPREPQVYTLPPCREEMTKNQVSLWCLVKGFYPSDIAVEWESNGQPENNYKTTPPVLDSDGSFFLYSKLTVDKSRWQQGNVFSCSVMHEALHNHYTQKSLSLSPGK
heavy: B2 heavy
light: B2 light
B6: CD3 × CD33-BspAb38 (bispecific antibody)
scFv-Fc: not shown
heavy: B2 heavy
light: B2 light
B7: CD3 × CD33-BspAb61 (bispecific antibody)
scFv-Fc: NFMLTQPHSVSESPGKTVTISCTRSSGSIASNYVQWYQQRPGSSPTTVIYEDNQRPSGVPDRFSGSIDSSSNSASLTISGLKTEDEADYYCQSFDNSNRVFGCGTKLTVLGGGGSGGGGSGGGGSGGGGSEVQLVESGGGLVKPGGSLRLSCAASGFTFSRYSMNWVRQAPGKCLKWVSSISSSGSYKYYADSVKGRFTISRDNAKNSLYLQMNSLRAEDTAVYYCAREPPTLGMDYWGQGTLVTVSSGGGGSDKTHTCPPCPAPEFEGGPSVFLFPPKPKDTLMISRTPEVTCVVVDVSHEDPEVKFNWYVDGVEVHNAKTKPREEQYNSTYRVVSVLTVLHQDWLNGKEYKCKVSNKALPASIEKTISKAKGQPREPQVYTLPPCREEMTKNQVSLWCLVKGFYPSDIAVEWESNGQPENNYKTTPPVLDSDGSFFLYSKLTVDKSRWQQGNVFSCSVMHEALHNHYTQKSLSLSPGK
heavy: B2 heavy
light: B2 light
B8: CD3 × CD33-BspAb44 (bispecific antibody)
chain 1: EVQLVESGGGLVKPGGSLRLSCAASGFTFSRYSMNWVRQAPGKCLKWVSSISSSGSYKYYADSVKGRFTISRDNAKNSLYLQMNSLRAEDTAVYYCAREPPTLGMDYWGQGTLVTVSSGGGGSGGGGSGGGGSGGGGSNFMLTQPHSVSESPGKTVTISCTRSSGSIASNYVQWYQQRPGSSPTTVIYEDNQRPSGVPDRFSGSIDSSSNSASLTISGLKTEDEADYYCQSFDNSNRVFGCGTKLTVLDKTHTCPPCPAPEFEGGPSVFLFPPKPKDTLMISRTPEVTCVVVDVSHEDPEVKFNWYVDGVEVHNAKTKPREEQYNSTYRVVSVLTVLHQDWLNGKEYKCKVSNKALPASIEKTISKAKGQPREPQVYTLPPCREEMTKNQVSLWCLVKGFYPSDIAVEWESNGQPENNYKTTPPVLDSDGSFFLYSKLTVDKSRWQQGNVFSCSVMHEALHNHYTQKSLSLSPGK
chain 2: B2 heavy
chain 3: B2 light
B9: CD3 × CD33-BspAb48 (bispecific antibody)
chain 1: QVTLKESGPGILQPSQTLSLTCSFSGFSLSTFGMGVGWIRQPSGKCLEWLAHIWWDDDKYYNPALKSRLTISKDTSKNQVFLKIANVDTADTATYYCARLGYYPYWFFDVWGTGTTVTVSSGGGGSGGGGSGGGGSGGGGSNFMLTQPHSVSESPGKTVTIACTRSSGSIASNYVQWYQQRPGSSPTTVIYEDNQRPSGVPDRFSGSIDSSSNSASLTISGLKTEDEADYYCQSYDSSNQVFGCGTKLTVLDKTHTCPPCPAPEFEGGPSVFLFPPKPKDTLMISRTPEVTCVVVDVSHEDPEVKFNWYVDGVEVHNAKTKPREEQYNSTYRVVSVLTVLHQDWLNGKEYKCKVSNKALPASIEKTISKAKGQPREPQVYTLPPCREEMTKNQVSLWCLVKGFYPSDIAVEWESNGQPENNYKTTPPVLDSDGSFFLYSKLTVDKSRWQQGNVFSCSVMHEALHNHYTQKSLSLSPGK
chain 2: B2 heavy
chain 3: B2 light
B10: CD3 × CD33-BspAb37 (bispecific antibody)
chain 1: not shown
chain 2: B2 heavy
chain 3: B2 light
B11: CD3 × CD33-BspAb51 (bispecific antibody)
chain 1: not shown
chain 2: B2 heavy
chain 3: B2 light
B12: CD3 × CD33-BspAb39 (bispecific antibody)
chain 1: not shown
chain 2: B2 heavy
chain 3: B2 light

Biological target: T1, recombinant human CD3 epsilon/gamma heterodimer (human, UniProt P07766 23-126; P09693 23-116)
T1 construct: Recombinant protein in solution (200-50 nM) in the Octet assay; also called hCD3 E/G
T1 sequence (P07766 23-126, chain 1 of 2): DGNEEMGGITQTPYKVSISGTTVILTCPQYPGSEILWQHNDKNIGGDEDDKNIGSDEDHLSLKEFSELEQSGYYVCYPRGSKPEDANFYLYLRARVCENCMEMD
T1 sequence (P09693 23-116, chain 2 of 2): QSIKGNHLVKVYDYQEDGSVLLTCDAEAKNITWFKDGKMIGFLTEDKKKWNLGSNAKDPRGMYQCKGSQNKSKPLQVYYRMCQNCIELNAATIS
Assay: Octet BLI, mAb on FAB2G sensor, hCD3 E/G 200-50 nM; R^2 0.94
Protocol: (§1) Samples were evaluated by flow cytometry analysis against Jurkat and human Pan-T cells (FIG. 1B) as well as by Octet against recombinant human CD3 proteins to evaluate apparent affinities and binding off-rates (Table 6, infra).

Question: With B1 as the binder, how does the Kd read?
Answer: The Kd was 9.66 nM.

Question: And the Response?
Answer: Its Response is 0.08.

Question: What about the koff of the same binder?
Answer: The koff was 0.00287 s⁻¹.

Question: What about the kon of the same binder?
Answer: The kon was 298000 M⁻¹ s⁻¹.

Biological target: T2, CD3 on Jurkat wild-type cells (UniProt P07766 23-207; P04234 22-171; P09693 23-182)
T2 construct: whole, on cells; also called Jurkat WT
T2 sequence (P07766 23-207, chain 1 of 3): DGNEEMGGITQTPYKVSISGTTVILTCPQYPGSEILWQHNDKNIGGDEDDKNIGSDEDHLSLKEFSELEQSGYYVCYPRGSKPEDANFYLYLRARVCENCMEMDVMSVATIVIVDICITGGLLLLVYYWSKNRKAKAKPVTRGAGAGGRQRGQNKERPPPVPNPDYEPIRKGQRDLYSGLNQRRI
T2 sequence (P04234 22-171, chain 2 of 3): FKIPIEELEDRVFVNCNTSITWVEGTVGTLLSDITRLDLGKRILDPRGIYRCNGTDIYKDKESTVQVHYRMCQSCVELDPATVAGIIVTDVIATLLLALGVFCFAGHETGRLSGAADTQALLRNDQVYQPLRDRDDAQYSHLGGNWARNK
T2 sequence (P09693 23-182, chain 3 of 3): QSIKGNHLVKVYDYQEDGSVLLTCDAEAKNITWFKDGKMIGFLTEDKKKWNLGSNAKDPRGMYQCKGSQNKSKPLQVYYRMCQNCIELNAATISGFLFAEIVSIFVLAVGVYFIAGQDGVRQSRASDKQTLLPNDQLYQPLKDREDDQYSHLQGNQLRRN
Assay: flow cytometry on Jurkat WT cells, antibody at 1 ug/ml

Question: How did the flow cytometry signal turn out when B2 was run?
Answer: The flow cytometry signal was 12500.

Question: Which flow cytometry signal does the source give for B3 here?
Answer: The flow cytometry signal was 12200.

Question: B4 was tested. Which flow cytometry signal did it give?
Answer: The flow cytometry signal was 19200.

Question: B5 was tested. Which flow cytometry signal did it give?
Answer: Its flow cytometry signal is 9700.

Question: For B6, which flow cytometry signal is on record?
Answer: The flow cytometry signal was 23700.

Question: With B7 as the binder, how does the flow cytometry signal read?
Answer: The flow cytometry signal was 95600.

Question: Which flow cytometry signal does the source give for B8 here?
Answer: The flow cytometry signal was 113000.

Question: Which flow cytometry signal does the source give for B9 here?
Answer: Its flow cytometry signal is 4140.

Question: B10 was tested. Which flow cytometry signal did it give?
Answer: Its flow cytometry signal is 10900.

Question: For B11, which flow cytometry signal is on record?
Answer: The flow cytometry signal was 12000.

Question: Which flow cytometry signal does the source give for B12 here?
Answer: Its flow cytometry signal is 2160.

Biological target: T3, recombinant human CD3 epsilon/delta heterodimer (human, UniProt P07766 23-126; P04234 22-105)
T3 construct: Recombinant protein in solution (200-50 nM) in the Octet assay; also called hCD3 E/D; human CD3E/D
T3 sequence (P07766 23-126, stated change not applied, chain 1 of 2): as the sequence (P07766 23-126, chain 1 of 2) above
T3 sequence (P04234 22-105, stated change not applied, chain 2 of 2): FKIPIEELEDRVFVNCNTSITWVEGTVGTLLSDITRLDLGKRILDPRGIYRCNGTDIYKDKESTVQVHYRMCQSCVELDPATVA
Assay: Octet BLI, mAb on FAB2G sensor, hCD3 E/D 200-50 nM; R^2 0.97
Protocol: as §1

Question: How did the Kd turn out when B1 was run?
Answer: Its Kd is 12.8 nM.

Question: And the Response?
Answer: Its Response is 0.17.

Question: And the koff?
Answer: The koff was 0.00152 s⁻¹.

Question: And the kon?
Answer: The kon was 119000 M⁻¹ s⁻¹.

Biological target: T2, CD3 on Jurkat wild-type cells
Assay: flow cytometry on Jurkat WT cells, antibody at 10 ug/ml

Question: Which flow cytometry signal does the source give for B2 here?
Answer: Its flow cytometry signal is 26100.

Question: How did the flow cytometry signal turn out when B3 was run?
Answer: Its flow cytometry signal is 26400.

Question: How did the flow cytometry signal turn out when B4 was run?
Answer: Its flow cytometry signal is 38300.

Question: With B5 as the binder, how does the flow cytometry signal read?
Answer: The flow cytometry signal was 33900.

Question: Which flow cytometry signal does the source give for B6 here?
Answer: The flow cytometry signal was 34100.

Question: B7 was tested. Which flow cytometry signal did it give?
Answer: The flow cytometry signal was 84800.

Question: Which flow cytometry signal does the source give for B8 here?
Answer: Its flow cytometry signal is 84800.

Question: With B9 as the binder, how does the flow cytometry signal read?
Answer: The flow cytometry signal was 10800.

Question: With B10 as the binder, how does the flow cytometry signal read?
Answer: Its flow cytometry signal is 32800.

Question: B11 was tested. Which flow cytometry signal did it give?
Answer: The flow cytometry signal was 24300.

Question: With B12 as the binder, how does the flow cytometry signal read?
Answer: Its flow cytometry signal is 2740.

Biological target: T4, CD33 on KILR-HL60 cells (UniProt P20138 18-364, limits assumed)
T4 construct: whole, on cells; Target of the gemtuzumab arm; also called CD33 expressing cells
T4 sequence (P20138 18-364 limits assumed): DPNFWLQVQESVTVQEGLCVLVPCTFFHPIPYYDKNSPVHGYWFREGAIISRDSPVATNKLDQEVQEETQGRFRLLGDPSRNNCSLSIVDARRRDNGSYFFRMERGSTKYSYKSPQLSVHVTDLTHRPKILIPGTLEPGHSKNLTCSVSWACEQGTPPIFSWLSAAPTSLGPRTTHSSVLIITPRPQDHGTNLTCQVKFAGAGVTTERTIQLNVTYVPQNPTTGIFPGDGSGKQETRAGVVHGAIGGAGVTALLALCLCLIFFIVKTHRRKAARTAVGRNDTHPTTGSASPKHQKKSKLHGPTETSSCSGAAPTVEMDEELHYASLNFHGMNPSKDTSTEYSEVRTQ
Assay: flow cytometry on KILR-HL60 (CD33 expressing) cells, antibody at 1 ug/ml

Question: For B2, which flow cytometry signal is on record?
Answer: The flow cytometry signal was 569000.

Question: With B3 as the binder, how does the flow cytometry signal read?
Answer: Its flow cytometry signal is 453000.

Question: For B4, which flow cytometry signal is on record?
Answer: Its flow cytometry signal is 640000.

Question: How did the flow cytometry signal turn out when B5 was run?
Answer: The flow cytometry signal was 475000.

Question: With B6 as the binder, how does the flow cytometry signal read?
Answer: The flow cytometry signal was 635000.

Question: Which flow cytometry signal does the source give for B7 here?
Answer: The flow cytometry signal was 621000.

Question: How did the flow cytometry signal turn out when B8 was run?
Answer: Its flow cytometry signal is 640000.

Question: For B9, which flow cytometry signal is on record?
Answer: Its flow cytometry signal is 566000.

Question: With B10 as the binder, how does the flow cytometry signal read?
Answer: The flow cytometry signal was 486000.

Question: With B11 as the binder, how does the flow cytometry signal read?
Answer: The flow cytometry signal was 509000.

Question: B12 was tested. Which flow cytometry signal did it give?
Answer: Its flow cytometry signal is 541000.

Biological target: T4, CD33 on KILR-HL60 cells
Assay: flow cytometry on KILR-HL60 (CD33 expressing) cells, antibody at 10 ug/ml

Question: How did the flow cytometry signal turn out when B2 was run?
Answer: The flow cytometry signal was 746000.

Question: Which flow cytometry signal does the source give for B3 here?
Answer: Its flow cytometry signal is 485000.

Question: How did the flow cytometry signal turn out when B4 was run?
Answer: The flow cytometry signal was 741000.

Question: How did the flow cytometry signal turn out when B5 was run?
Answer: The flow cytometry signal was 465000.

Question: Which flow cytometry signal does the source give for B6 here?
Answer: Its flow cytometry signal is 476000.

Question: B7 was tested. Which flow cytometry signal did it give?
Answer: The flow cytometry signal was 538000.

Question: How did the flow cytometry signal turn out when B8 was run?
Answer: The flow cytometry signal was 475000.

Question: With B9 as the binder, how does the flow cytometry signal read?
Answer: Its flow cytometry signal is 483000.

Question: With B10 as the binder, how does the flow cytometry signal read?
Answer: Its flow cytometry signal is 758000.

Question: For B11, which flow cytometry signal is on record?
Answer: Its flow cytometry signal is 691000.

Question: With B12 as the binder, how does the flow cytometry signal read?
Answer: The flow cytometry signal was 572000.

Reference: patent publication US20260167721A1 (ABLEXIS, published 2026)
